The source of these data is patent US20190040102A1 (CDRD VENTURES, published 2019).

Positions of bridges follow the written chain, without caps; N, C: chain ends. Non-standard residues stand in square brackets, D forms with d. dPhe(4-CONH2) = NC(=O)c1ccc(C[C@@H](N)C(=O)O)cc1; Phe(4-Cl) = N[C@@H](Cc1ccc(Cl)cc1)C(=O)O

Holding throughout (test): cell-based or functional assay
The target in assay [1] is somatostatin receptor SSTR1 (UniProt P30872 1-391).
The target in assay [2] is somatostatin receptor SSTR3 (UniProt P32745 1-418).
Assay [3] deals with somatostatin receptor SSTR4 (UniProt P31391 1-388).
Assay [4] has as its target somatostatin receptor type 2 (SSTR2) (UniProt P30874 1-369).
Assay [5] addresses somatostatin receptor SSTR5 (UniProt P35346 1-364).

Sequence of somatostatin receptor SSTR4 (P31391 whole entry): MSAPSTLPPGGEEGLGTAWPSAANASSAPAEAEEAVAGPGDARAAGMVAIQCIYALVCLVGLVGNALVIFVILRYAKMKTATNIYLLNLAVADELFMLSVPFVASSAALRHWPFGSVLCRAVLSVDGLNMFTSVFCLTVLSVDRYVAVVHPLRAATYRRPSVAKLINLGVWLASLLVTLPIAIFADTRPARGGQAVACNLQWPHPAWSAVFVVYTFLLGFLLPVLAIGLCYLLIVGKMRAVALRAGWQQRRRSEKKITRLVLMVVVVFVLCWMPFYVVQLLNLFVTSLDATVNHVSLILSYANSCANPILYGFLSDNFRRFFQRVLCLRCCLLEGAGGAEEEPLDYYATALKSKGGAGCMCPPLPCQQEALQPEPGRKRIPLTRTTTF
Sequence of somatostatin receptor type 2 (SSTR2) (P30874 whole entry): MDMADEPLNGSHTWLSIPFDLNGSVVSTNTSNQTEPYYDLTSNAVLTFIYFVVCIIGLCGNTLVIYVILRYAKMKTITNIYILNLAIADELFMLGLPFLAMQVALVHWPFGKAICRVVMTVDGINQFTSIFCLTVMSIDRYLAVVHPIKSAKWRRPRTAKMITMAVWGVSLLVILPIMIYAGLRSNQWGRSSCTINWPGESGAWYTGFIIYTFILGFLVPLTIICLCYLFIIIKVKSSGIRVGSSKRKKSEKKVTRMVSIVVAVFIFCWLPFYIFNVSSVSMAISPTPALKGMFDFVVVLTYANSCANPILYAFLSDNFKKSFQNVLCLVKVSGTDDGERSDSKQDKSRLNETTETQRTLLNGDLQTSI
Sequence of somatostatin receptor SSTR1 (P30872 whole entry): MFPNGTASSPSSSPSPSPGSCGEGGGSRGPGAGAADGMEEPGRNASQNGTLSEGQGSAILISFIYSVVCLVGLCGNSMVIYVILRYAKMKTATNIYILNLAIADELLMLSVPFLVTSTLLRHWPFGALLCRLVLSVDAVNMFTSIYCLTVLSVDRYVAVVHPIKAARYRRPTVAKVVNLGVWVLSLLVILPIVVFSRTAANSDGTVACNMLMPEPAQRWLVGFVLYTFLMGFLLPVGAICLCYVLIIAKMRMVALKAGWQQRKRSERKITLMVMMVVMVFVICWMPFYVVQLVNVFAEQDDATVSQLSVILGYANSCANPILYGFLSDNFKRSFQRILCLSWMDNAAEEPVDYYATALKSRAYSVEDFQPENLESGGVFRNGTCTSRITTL
Sequence of somatostatin receptor SSTR3 (P32745 whole entry): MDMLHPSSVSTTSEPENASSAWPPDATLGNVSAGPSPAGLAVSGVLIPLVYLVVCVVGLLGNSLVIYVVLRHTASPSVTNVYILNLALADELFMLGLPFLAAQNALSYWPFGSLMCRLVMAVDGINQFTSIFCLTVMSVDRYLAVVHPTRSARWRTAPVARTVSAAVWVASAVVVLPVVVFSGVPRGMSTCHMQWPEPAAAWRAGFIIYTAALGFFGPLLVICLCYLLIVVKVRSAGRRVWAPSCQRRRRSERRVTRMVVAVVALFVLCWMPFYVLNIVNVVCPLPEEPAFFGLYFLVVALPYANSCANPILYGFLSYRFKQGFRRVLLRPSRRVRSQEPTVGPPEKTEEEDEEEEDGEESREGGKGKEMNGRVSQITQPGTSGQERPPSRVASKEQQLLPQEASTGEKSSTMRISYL
Sequence of somatostatin receptor SSTR5 (P35346 whole entry): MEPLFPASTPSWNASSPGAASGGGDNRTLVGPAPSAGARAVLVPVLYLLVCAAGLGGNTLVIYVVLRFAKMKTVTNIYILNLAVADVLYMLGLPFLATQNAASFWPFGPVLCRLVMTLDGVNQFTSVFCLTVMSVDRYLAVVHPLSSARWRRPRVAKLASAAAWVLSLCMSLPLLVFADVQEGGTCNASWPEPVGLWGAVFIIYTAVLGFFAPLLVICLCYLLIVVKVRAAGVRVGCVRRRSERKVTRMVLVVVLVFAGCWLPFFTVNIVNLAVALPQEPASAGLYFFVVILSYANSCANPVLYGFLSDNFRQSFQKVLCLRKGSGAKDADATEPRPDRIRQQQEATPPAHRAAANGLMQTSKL

B1: Compound 15: H-Cpa-cyclo[D-Cys-Tyr-D-Phe(4-phenylureido)-Lys-Thr-Cys]-D-Tyr-NH2 (peptide)
peptide: XXYXKTCX
HELM: PEPTIDE1{[N[C@@H](Cc1ccc(Cl)cc1)C(=O)[*:2]].[dC].Y.[O=C(Nc1ccccc1)Nc1ccc(C[C@@H](N[*:1])C(=O)[*:2])cc1].K.T.C.[dY].[am]}$PEPTIDE1,PEPTIDE1,2:R3-7:R3$$$V2.0
SMILES: C[C@@H](O)[C@@H]1NC(=O)[C@H](CCCCN)NC(=O)[C@@H](Cc2ccc(NC(=O)Nc3ccccc3)cc2)NC(=O)[C@H](Cc2ccc(O)cc2)NC(=O)[C@H](NC(=O)[C@@H](N)Cc2ccc(Cl)cc2)CSSC[C@@H](C(=O)N[C@H](Cc2ccc(O)cc2)C(N)=O)NC1=O
For B1, the “IC50 (PathHunter β-Arrestin, antagonist mode)” value in assay [1] was more than 1000 nM; in assay [2], more than 1000 nM; in assay [3], more than 1000 nM; in assay [4] it was 1 nM; in assay [5], more than 1000 nM.

B2: Compound 24: H-Cpa-cyclo[D-Cys-Tyr-D-Phe(4-carbamoyl)-Lys(Nε-Me)-Thr-Cys]-D-Tyr-NH2 (peptide)
peptide: H-[Phe(4-Cl)][dC]Y[dPhe(4-CONH2)]K(Me)TC[dY]-NH2
modifications: disulfide 2-7
SMILES: CNCCCC[C@@H]1NC(=O)[C@@H](Cc2ccc(C(N)=O)cc2)NC(=O)[C@H](Cc2ccc(O)cc2)NC(=O)[C@H](NC(=O)[C@@H](N)Cc2ccc(Cl)cc2)CSSC[C@@H](C(=O)N[C@H](Cc2ccc(O)cc2)C(N)=O)NC(=O)[C@H]([C@@H](C)O)NC1=O
On to B2, for which the “IC50 (PathHunter β-Arrestin, antagonist mode)” value in assay [1] is more than 1000 nM; in assay [2] it was more than 1000 nM; in assay [3], more than 1000 nM; in assay [4], 0.96 nM; in assay [5], more than 1000 nM.
